Patent US20200181211A1

Assays:
[1] = target: soluble plasma fibronectin (Fn) isolated from human plasma (human) (UniProt P02751); assay: fluorescence anisotropy titration, 100 nM labelled peptide, Fn 0 to 1.4 µM in PBS, one-site-binding model
[2] = target: manually pulled Fn fibers (relaxed, fibrillar fibronectin from human plasma, 5% Fn-Cy5) (human) (UniProt P02751); assay: titration of fluorescent peptide on relaxed manually pulled Fn fibers, confocal intensity ratio peptide/Fn-Cy5, Hill fit
[3] = target: manually pulled Fn fibers (relaxed, fibrillar fibronectin from human plasma, 5% Fn-Cy5) (human) (UniProt P02751); assay: displacement assay on relaxed manually pulled Fn fibers, competitor of FnBPA5-Alexa488

Substance: FnBPA5-Alexa488 (peptide)
- Kd [1]: 75 nM
- Kd [2]: 28 nM

Substance: natIn-FnBPA5 (cold labeled) (peptide)
- IC50 [3]: 49 nM
